Molecular target: P02689
Assay: dynamic light scattering; triplicates at +25 °C; 0.6–0.9 mg/ml protein; 0.3 M NaCl, 20 mM HEPES pH 7.5; proteins stored on ice for 24 h after SEC
Conditions: other: dynamic light scattering

B1: human myelin protein P2 T51P (protein)
chain: MSNKFLGTWKLVSSENFDDYMKALGVGLATRKLGNLAKPTVIISKKGDIIPIRTESTFKNTEISFKLGQEFEETTADNRKTKSIVTLQRGSLNQVQRWDGKETTIKRKLVNGKMVAECKMKGVVCTRIYEKV
B1 was tested. Which Monomeric (%) did it give?
The Monomeric (%) was 98.3%.
